The values below come from PMC4898930.

For the assay, the target named is Myc-N1. Kind of assay: co-immunoprecipitation (IP with Myc antibody), quantification of western blot bands. The settings on record: HEK293 cells, more than 3 independent experiments, read off a plot. On the technique in general: Immunoblotting shows a protein as a band on a membrane.

On to Fam65b-GFP (from UniProt Q80U16) RL/AA, for which the response (relative intensity) (control (without HA-RhoC), parent: est. 1.0) was determined as 0.47 and the response (relative intensity) (with HA-RhoC co-expressed, parent: est. 1.7) was 0.2.
